The source of these data is US20240002516A1 (4B TECHNOLOGIES SUZHOU, published 2024).

Assay [1] has as its target T1, extracellular domain (ECD) of human TrkA protein, N-terminal flag tag and C-terminal His tag (PHA) (human, UniProt P04629 33-423).
T1 construct: Made in 293-F cells and purified by IMAC; also called TrkA ECD protein; TrkA (ECD); not shown: flag tag at the N-terminus (after the signal peptide); His tag at the C-terminus
The assay is described as follows: BLI (Octet Red384), antibody captured on anti-human Fc AHQ tips, antigen 100 nM. As for the experimental part:
(§1) The bio-layer interferometry (BLI) method was used to determine the affinities of the antibodies, employing Octet Red384. Briefly, anti-human Fc-coated biosensor AHQ tips (ForteBio) were put into PBS with 0.1% w/v bovine serum albumin and 0.05% Tween-20 for a minimum of 10 min in the pre-wetting plate. The purified antibodies (100 nM in PBS with 0.1% bovine serum albumin and 0.05% Tween-20 (assay buffer)) were captured on AHQ biosensors (ForteBio) at a level of about 1 nm. The loaded biosensors were washed with an assay buffer to remove any unbound protein. Then, the association rates, dissociation rates and response were measured, using an antigen of 100 nM (in PBS with 0.1% bovine serum albumin and 0.05% Tween-20).
(In general: BLI is a label-free optical method that tracks binding on a fibre tip over time.)

The target of assay [2] is T1, extracellular domain (ECD) of human …. The assay is described as follows: BLI (Octet Red384), as in Example 4. As for the experimental part: as §1
Two rounds of humanizations were further performed. […] In the second round, many other variants were further constructed (including several mutations in the CDR sequences). Quickchange based site-directed mutagenesis or overlap PCR were performed to create expression plasmid of new versions of 2nd round humanized antibodies. All recombinant antibodies were expressed and purified as described in Example 1, then measured antigen binding affinity using BLI technology with the Octet Red384 instrument as mentioned above. To compare the functional activity of humanized antibodies with chimeric antibodies, NFAT assay was also performed.

For assay [3], the target named is T2, human TrkA on CellSensor TrkA-NFAT-bla CHO-K1 cells (human, UniProt P04629 33-796).
T2 construct: whole, on cells; Bought cell line; also called cells overexpressing human TrkA
T2 sequence (P04629 33-796 limits assumed, form in doubt): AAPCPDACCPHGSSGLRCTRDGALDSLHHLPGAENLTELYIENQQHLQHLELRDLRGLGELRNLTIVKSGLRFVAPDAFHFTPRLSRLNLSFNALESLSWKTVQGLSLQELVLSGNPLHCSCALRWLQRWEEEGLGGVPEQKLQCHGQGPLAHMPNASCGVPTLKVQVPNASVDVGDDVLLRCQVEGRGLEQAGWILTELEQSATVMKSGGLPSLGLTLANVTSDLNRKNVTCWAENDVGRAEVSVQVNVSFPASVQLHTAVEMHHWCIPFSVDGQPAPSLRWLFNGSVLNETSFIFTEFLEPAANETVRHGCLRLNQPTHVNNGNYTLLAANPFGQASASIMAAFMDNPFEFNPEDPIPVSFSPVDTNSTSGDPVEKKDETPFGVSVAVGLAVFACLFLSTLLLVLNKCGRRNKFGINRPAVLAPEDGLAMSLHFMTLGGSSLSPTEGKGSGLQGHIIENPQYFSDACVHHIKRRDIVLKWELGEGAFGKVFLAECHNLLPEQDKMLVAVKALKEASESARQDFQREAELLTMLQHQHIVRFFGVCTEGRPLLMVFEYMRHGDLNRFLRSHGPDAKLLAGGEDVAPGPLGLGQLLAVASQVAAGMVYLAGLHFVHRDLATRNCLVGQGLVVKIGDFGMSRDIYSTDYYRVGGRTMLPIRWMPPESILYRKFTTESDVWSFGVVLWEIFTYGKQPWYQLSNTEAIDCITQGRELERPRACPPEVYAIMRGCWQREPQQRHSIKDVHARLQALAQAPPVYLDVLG
The assay is described as follows: FACS on cells expressing human TrkA (FIG. 5A).

Assay [4] addresses T1, extracellular domain (ECD) of human …. The assay is described as follows: affinity after affinity maturation; method not stated in Example 5; measured in the affinity maturation series of Example 5, not the humanization series of the 11th table.
For assay [5], the target named is T2, human TrkA on CellSensor TrkA-NFAT-bla …. The assay is described as follows: cell-based or functional assay.
Assay [6] has as its target T1, extracellular domain (ECD) of human …. The assay is described as follows: affinity after affinity maturation; method not stated in Example 5.

In general, Kd refers to the constant that tells how readily two partners part at equilibrium. A lower Kd goes with higher affinity. The koff is a measure of how fast the partners let go of each other. One may read the kon as the rate constant with which the complex forms. High values mean faster complex formation, low ones slower complex formation. As a reminder, the EC50 is the concentration giving half of the maximal effect. Read a high EC50 as weaker potency.

T1 sequence (P04629 33-423): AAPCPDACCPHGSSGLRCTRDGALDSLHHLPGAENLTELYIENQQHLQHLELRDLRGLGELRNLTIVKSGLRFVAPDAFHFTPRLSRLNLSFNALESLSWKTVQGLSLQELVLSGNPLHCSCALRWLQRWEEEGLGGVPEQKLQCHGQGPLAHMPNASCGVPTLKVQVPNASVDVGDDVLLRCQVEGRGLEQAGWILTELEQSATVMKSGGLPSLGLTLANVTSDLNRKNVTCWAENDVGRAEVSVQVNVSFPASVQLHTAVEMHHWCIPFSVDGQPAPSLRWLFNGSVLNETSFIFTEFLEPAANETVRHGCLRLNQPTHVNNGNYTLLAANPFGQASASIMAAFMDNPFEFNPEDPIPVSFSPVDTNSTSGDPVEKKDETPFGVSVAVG

B1: chi-PHD49 (antibody, V domains shown)
VH: QVQLQQSGAELARPGASVKLSCKASGYTFSSYWMQWVKQRPGQGLEWIGAIYPGDDDTIYTQKFKGKATLTADKSSSTAYMQLSSLASEDSAVYYCARNYDYQAWFAYWGQGTLVTVSA
VL: QIVLTQSPALMSASPGEKVTMTCSASSSVSYMYWYQQKPRSSPKPWIYLTSNLASGVPARFSGSGSGTSYSLTISSMEAEDAATYYCQQWSSNPLTFGAGTKLELK
notes: Chimeric: human IgG4 / human kappa constant regions (pCDNA3.4-hIgG4 and pCDNA3.4-hKappa vectors)
Regarding B1, the Kd stood at 1.79 nM in assay [1], 3.62 nM in assay [2] and 3.04 nM in assay [4]. In addition, the koff in assay [1] turned out to be 0.000603 s⁻¹; in assay [2], 0.000827 s⁻¹; in assay [6] it was 0.000665 s⁻¹. The kon in assay [1] is 337000 M⁻¹ s⁻¹; in assay [2], 229000 M⁻¹ s⁻¹; in assay [6], 219000 M⁻¹ s⁻¹. The molecule further yielded a concentration giving a half-maximal response (EC50) in assay [3] of 0.157 µg/mL. For the same molecule, in assay [5], the “EC50 (so labelled in the drawn table; a falling inhibition curve, the text calls this value IC50); inhibition of NGF-induced TrkA activation in TrkA-NFAT-bla CHO-K1 reporter cells” value came out at 0.793 nM. For the same molecule, the “Top; inhibition of NGF-induced TrkA activation in TrkA-NFAT-bla CHO-K1 reporter cells” value in assay [5] turned out to be 1.04 Response Ratio.
